Experiments:
[1] = viscosity measurement (falling ball micro viscometer); Tpm 1 mg/mL in 30 mM Hepes-Na pH 7.3, NaCl from 30 to 200 mM, 4 mM DTT, 20 °C; excess viscosity over buffer as measure of end-to-end interactions between adjacent Tpm molecules; conditions: other: viscosity measurement (falling ball micro viscometer)
[2] = target: F-actin (fibrillar actin from rabbit skeletal muscle) (rabbit) (UniProt P68135)
[3] = target: F-actin (fibrillar actin from rabbit skeletal muscle) (rabbit) (UniProt P68135); assay: co-sedimentation; 10 µM F-actin with 0.5 to 7.5 µM Tpm in 30 mM Hepes-Na pH 7.3, 200 mM NaCl; pelleted at 100,000 x g; SDS-PAGE of pellet and supernatant; apparent affinity, K50% = free Tpm at half-saturation of actin
[4] = target: F-actin (fibrillar actin from rabbit skeletal muscle) (rabbit) (UniProt P68135); assay: light scattering on heating (thermally induced dissociation of Tpm from F-actin); 20 µM phalloidin-stabilized F-actin and 10.5 µM Tpm (legend: 10 µM) in 30 mM Hepes-Na pH 7.3, 100 mM NaCl; heated to 65 °C at 1 °C/min; 350 nm, 90°; T_diss = temperature of 50% decrease in light scattering

Substance | excess viscosity at 30 mM NaCl [1] | excess viscosity at 200 mM NaCl [1] | solution viscosity at 200 mM NaCl [1] | bending stiffness of Tpm–F-actin filaments, two-beam optical trap, median (IQT, N); F-actin alone 2.35 [2] | K50% [3] | T diss (temperature of half-dissociation of Tpm from F-actin) [4]
Tpm1.9, cytoplasmic tropomyosin isoform (human, TPM1 gene product) | approximately 2.25 mPa·s for 30 mM NaCl | close to 0.5 mPa·s for 200 mM NaCl | 0.886 mPa·s | – | – | –
Tpm1.8, cytoplasmic tropomyosin isoform (human, TPM1 gene product) | – | – | 0.593 mPa·s | – | – | –
AS-Tpm1.8, Tpm1.8 with N-terminal Ala-Ser extension (natural protein) | – | – | – | 8.1e-26 N∙m^2 | 0.59 µM | 44.4 °C
Tpm1.9, cytoplasmic tropomyosin isoform (human, TPM1 gene product) (natural protein) | – | – | – | 4.8e-26 N∙m^2 | 0.79 µM | 46.2 °C
Tpm1.8, cytoplasmic tropomyosin isoform (human, TPM1 gene product) (natural protein) | – | – | – | 3.75e-26 N∙m^2 | 0.3 µM | 44.4 °C
AS-Tpm1.9, Tpm1.9 with N-terminal Ala-Ser extension | approximately 2.25 mPa·s for 30 mM NaCl | close to 0.5 mPa·s for 200 mM NaCl | – | – | – | –
AS-Tpm1.9, Tpm1.9 with N-terminal Ala-Ser extension (natural protein) | – | – | – | 4.7e-26 N∙m^2 | 0.98 µM | 47 °C
